This passage reports binding signal (fold lower affinity than DBD-OD) results from publication PMC12422735.

The subject of this data set is Δ40p53β (TS, purified). In words: SPR. To be noted: Hill slope fit; SPR: 25 mM HEPES pH 7.5, 200 mM NaCl, 0.5 mM TCEP, 0.005% Tween-20, 20 °C; pull-down: 50 mM HEPES pH 7.5, 200 mM NaCl, 0.1% Tween-20, 0.5 mM TCEP, 4 °C.

p21 RE 20 bp registered a binding signal (fold lower affinity than DBD-OD) of 280.
